Source: patent US20230365705A1 (DYNAMICURE BIOTECHNOLOGY, published 2023)
Residue numbers refer to the chain shown, from its start. Read-outs that look alike come from different tables or passages of the source. One block for each binder: values may come before it.

What was measured:
[1] = target: T1, Human CD93 on cells (human CD93 expressing CHO cells; HUVEC, U937 and KG1a cells) (human, UniProt Q9NPY3 22-652); assay: flow cytometry, CD93 expressing CHO cells, antibody 10 ug/ml, FITC-A
T1 construct: whole, on cells; also called hCD93 expressing CHO cells; hCD93 CHO cells
T1 sequence (looked up): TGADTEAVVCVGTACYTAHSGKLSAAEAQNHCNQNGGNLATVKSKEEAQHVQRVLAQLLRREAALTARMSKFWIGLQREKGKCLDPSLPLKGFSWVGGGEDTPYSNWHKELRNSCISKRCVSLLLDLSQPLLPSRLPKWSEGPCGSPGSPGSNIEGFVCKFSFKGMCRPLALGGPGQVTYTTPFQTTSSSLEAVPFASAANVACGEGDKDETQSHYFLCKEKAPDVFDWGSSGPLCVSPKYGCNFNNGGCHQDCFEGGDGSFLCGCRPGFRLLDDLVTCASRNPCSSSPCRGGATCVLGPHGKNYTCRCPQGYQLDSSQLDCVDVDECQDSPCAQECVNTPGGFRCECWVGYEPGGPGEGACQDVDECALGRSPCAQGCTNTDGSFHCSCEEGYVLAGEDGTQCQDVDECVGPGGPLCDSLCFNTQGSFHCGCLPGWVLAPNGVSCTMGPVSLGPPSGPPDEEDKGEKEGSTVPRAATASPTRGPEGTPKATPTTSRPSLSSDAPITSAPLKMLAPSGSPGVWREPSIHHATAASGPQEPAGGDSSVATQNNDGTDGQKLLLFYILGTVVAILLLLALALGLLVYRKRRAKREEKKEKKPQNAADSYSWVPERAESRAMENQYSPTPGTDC
Method: Human CD93 expressing CHO cells were detached by incubation with TrypLE reagents (Thermos Fisher), which preserves the integrity of CD93 on the cell surface. […] After washing with FACS buffer twice, the samples were acquired in NovoCyte Flow Cytometer and analyzed by NovoExpress software.

[2] = target: T2, Human CD93 recombinant protein (Sino Biological Inc, Catalog #12589-H08H) (human, UniProt Q9NPY3 22-580); assay: BLI (Octet QKe), biotinylated human CD93 on streptavidin biosensors
T2 construct: Biotinylated (EZ-LINK NHS-PEG4 biotin) in the BLI assays; also called hCD93; His-tagged human CD93
T2 sequence (looked up): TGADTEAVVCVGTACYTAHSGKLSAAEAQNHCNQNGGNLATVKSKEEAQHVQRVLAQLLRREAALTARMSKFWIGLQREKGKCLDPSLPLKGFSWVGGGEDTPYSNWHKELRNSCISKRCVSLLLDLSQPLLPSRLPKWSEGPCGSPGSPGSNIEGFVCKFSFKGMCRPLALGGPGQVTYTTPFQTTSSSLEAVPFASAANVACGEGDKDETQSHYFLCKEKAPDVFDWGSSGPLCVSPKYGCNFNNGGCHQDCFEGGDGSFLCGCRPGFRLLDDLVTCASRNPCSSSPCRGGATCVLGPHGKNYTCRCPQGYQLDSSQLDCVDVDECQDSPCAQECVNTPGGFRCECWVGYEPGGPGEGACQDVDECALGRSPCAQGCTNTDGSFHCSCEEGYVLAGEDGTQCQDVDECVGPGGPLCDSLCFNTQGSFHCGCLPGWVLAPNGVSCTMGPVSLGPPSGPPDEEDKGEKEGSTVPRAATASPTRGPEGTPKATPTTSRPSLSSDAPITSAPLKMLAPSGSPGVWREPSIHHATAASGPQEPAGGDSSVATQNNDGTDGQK
Method: The binding affinity of anti-CD93 antibodies were determined with bio-layer interferometry using Octet QKe (Fortebio). Human CD93 recombinant protein (Sino Biological Inc, Catalog #12589-H08H) or cynomolgus CD93 protein (made in-house) were biotinylated using EZ-LINK NHS-PEG4 biotin (Thermo Fisher Scientific). Streptavidin biosensors (Fortebio) were used to load biotinylated CD93 protein (300 seconds in 5 μg/ml). The baseline was stabilized for 60 seconds in 1× kinetics buffer (Fortebio) before anti-CD93 antibodies at a serial dilution were allowed to associate for 300 seconds with captured protein. Then the sensors were dissociated in 1× kinetics buffer for 600 seconds.

[3] = target: T1, Human CD93 on cells (human CD93 …); assay: flow cytometry, CHO cells overexpressing human CD93, antibody 0.01ug, mIgG1 as control, APC-A
[4] = target: T1, Human CD93 on cells (human CD93 …); assay: as above; remark: listed apart in the source

- M2 gate, % of cells [3]: 99.5%
B8: humanized 17B10 H3L1 (antibody, mouse IgG1, V domains shown)
VH: QVQLVQSGPEVKKPGESLKISCKASGYAFSSYWLNWVRQMPGKGLEWMGRIYPGDGDTDYNGKFKGQVTISADKSSGTAYLQLSSLKASDTAVYFCVRGDGYWAMDYWGQGTLVTVSS
VL: DIVMTQSPLSLPVTPGEPASISCRFSQSLLHSNGITYLYWYLQKPGQSPQLLIYQMSNLASGVPDRFSGSGSGTDFTLKISRVEAEDVGVYYCAQNLELPWTFGGGTKLEIK
notes: Chimeric Fc: human CH1, mouse IgG1 CH2 and CH3

- M2 gate, % of cells [3]: 92.1%
B9: humanized 17B10 H1L2 (antibody, mouse IgG1, V domains shown)
VH: QVQLVQSGAEVKKPGSSVKVSCKASGYAFSSYWLNWVRQAPGQGLEWFGRIYPGDGDTDYNGKFKGRVTLTADKSTSTAYMELSSLRSEDTAVYFCVRGDGYWAMDYWGQGTTVTVSS
VL: B8 VL with S7T, Q55T
notes: as for B8

- M2 gate, % of cells [3]: 99.2%
B10: humanized 17B10 H2L3 (antibody, mouse IgG1, V domains shown)
VH: QVQLVQSGAEVVKSGASVKVSCKASGYAFSSYWLNWVRQAPGQGLEWFGRIYPGDGDTDYNGKFKGRVTLIRDTSTSTVYMELTSLTSEDTAVYYCVRGDGYWAMDYWGQGTLVTVSS
VL: DIVMTQSPDSLAVSLGERATINCRFSKSLLHSNGITYLYWYQQKPGQPPKLLIYQMSNLASGVPDRFSGSGSGTDFTLTISSLQAEDVAVYYCAQNLELPWTFGGGTKLEIK
notes: as for B8

- M2 gate, % of cells [4]: 98.2%
B11: humanized 17B10 H2L1 (antibody, mouse IgG1, V domains shown)
VH: B10 VH
VL: B8 VL
notes: as for B8

- binding result [1]: binds
- binding result [2]: binds
B14: 17E6 (antibody, V domains shown)
VH: EVQLQQSGPELVKPGASVKMSCKASGYTFTSYVIHWVKQKPGQGLEWIGYINPYSDYTQYNEKFKGKATLTSDKSSSTAYMELSSLTSEDSAVYSCARRADGNPYAMDYWGQGTSVTVSS
VL: DIVMTQSHKFMSTSVGDRVSTTCKASQDVSTAVVWYQQKPGQSPKLLIYSASYRYTGVPDRFTGSGSGTDFTFTITSVQAEDLAVYYCQQHYSTPFTFGSGTKLEIK
notes: Mouse hybridoma monoclonal antibody

- binding result [1]: binds
- binding result [2]: binds
B15: 20C7 (antibody, V domains shown)
VH: B14 VH with K13N, S31A, I34M, N52F, S55N, Y57G, Q59E, S95Y, A100T, A106T
VL: B14 VL with T21I, V34A, Y49H, S65R, T76S
notes: as for B14

The remaining lines, values behind:

B1: 12H4 (antibody, V domains shown)
VH: EVQLQQSGPELVKPGASVKVSCKASGYTFTDYYIHWVKQRPGQGLEWIGEIYPGSDDAYYNEKFKGKATLTADKSSSTAYMQLSSLTSEDSAVYFCTRETTATAYWGQGTLVTVSA
VL: QIVLTQSPAIMSASPGEKVTITCSASSSVSLIYWFQQKPGTSPKLWIYSTSNLASGVPARFSGSGSGTSYSLTISRMEAEDAATYYCQQRSGYPPTFGGGTKLEIK
notes: as for B14
- binding result [1]: binds
- binding result [2]: binds

B2: 5H9 (antibody, IgG2a, V domains shown)
VH: QVQLQQSGPDLVKPGASVKISCKASGYAFSTYWMNWVKQRPGKGLEWIGRIFPGDGDANYNGKFKGKATLTADKSSSTAYMQLSSLTSEDSAVYFCTRTGAAYDFDPFPYWGQGTLVTVSA
VL: DIVMTQAAFSNPVTLGTSASISCSSSKSLLHSNGVTYLYWYLQRPGQSPQLLIYRMSNLASGVPDRFSGSGSGTDFTLRISRVEAEDVGIYYCAQMLERPFTFGSGTKLEIK
notes: also called 5H9 mIgG2a
- binding result [1]: binds
- binding result [2]: binds

B3: 17A7 (antibody, V domains shown)
VH: B2 VH with D10E, A24G, A58T, N59D, N61D, S77N, T97A, D104E
VL: B2 VL with S26T, N33S, V35I, I90V
notes: as for B14
- binding result [1]: binds
- binding result [2]: binds

B4: 19E12 (antibody, V domains shown)
VH: QVQLQQSGAELVRPGASVKLSCKASGYTFTDYEMHWVRQTPVHGLEWIGGIDPETGGTAYNQKFKGKATLTADKSSSTAYMELRSLTSEDSAVYYCTRGAWFAYWGQGTLVTVSA
VL: QAVVTQESALTTSPGETVTLTCRSSTGAVTTSNSANWVQEKPDHLFTGLIGGTNNRAPGVPARFSGSLIGDKAALTITGAQTEDEAIYFCALWYNNHFVFGGGTKLTVL
notes: as for B14
- binding result [1]: binds
- binding result [2]: binds

B5: 16G9 (antibody, V domains shown)
VH: EVQLQQSGPELVKPGASVKMSCKASGYTFTDYYMNWVKQSHGKSLEWIGRVNPNNGGKTYNQKFKGKATLTVDKSLSTAYMQLNSLTSEDSAVYYCARWRLRPVDYGMDYWGQGTSVTVSS
VL: DIVLTQSPASLAVSLGQRATISCRASQSVSTSSYSYMHWYQQKPGQPPKLLIKYASNLESGVPARFSGSGSGTDFTLNIHPVEEEDTATYYCQHSWEIPFTFGSGTKLEIK
notes: as for B14
- binding result [1]: binds
- binding result [2]: binds

B6: humanized 17B10 H1L1 (antibody, mouse IgG1, V domains shown)
VH: B9 VH
VL: B8 VL
notes: as for B8
- M2 gate, % of cells [3]: 99%

B7: humanized 17B10 H1L3 (antibody, mouse IgG1, V domains shown)
VH: B9 VH
VL: B10 VL
notes: as for B8
- M2 gate, % of cells [4]: 99.2%

B12: 16B6 (antibody, V domains shown)
VH: QVQLQQSGPELVKPGASVKISCKASGYAFSRSWMNWVKQRPGKGLEWIGWIYPGDGDTNYNGKFKGKATLTADKSSSTAYMQLSSLTSEDSAAYFCARSATLPYWYFDVWGAGTTVTVSS
VL: DIKMTQSPSSMYASLGERVTITCKASQDIKSYLSWYQQKPWKSPKTLIYYATNLADGVPSRFSGSGSGQDYSLTISSLGSDDTATYYCLQHVESPWTFGGGTKLEIK
notes: as for B14
- binding result [1]: binds
- binding result [2]: binds

B13: 19B5 (antibody, V domains shown)
VH: DVNLVESGGGLVKLGGSLKLSCAASGFTFSNYYMSWVRQSPEKRLEWVATISNNGDSTYYLDTVKGRFTISRDSAENTLYLQMSSLISEDTAVYYCTRVGTGFTYWGQGTLVTVSA
VL: DIVLTQSPATLSVTPGDSVSLSCRASQSINNYLHWYQQRSHESPRLLIKFASQSISDIPSRFSGSGSGTDFTLSINSIETEDFGMYFCQQSNSWPLTFGAGTKLELK
notes: as for B14
- binding result [1]: binds
- binding result [2]: binds
